How the values were obtained:
[1] = molecular target: T1, human EpCAM expressed on cells (human, UniProt P16422 24-314); experiment: flow cytometry, titration of biotinylated antibody on EpCAM-transfected CHO cells, detection with fluorochrome-conjugated streptavidin
T1 construct: whole, on cells; In the debris and exosome assays EpCAM stands on heat-shocked tumour cell debris or on exosomes; also called EpCAM on CHO-EpCAM, JEG, JAR, HT29, BxPC3, MCF7 and MB49-hEpCAM-OVA cells, their debris or exosomes
T1 sequence (looked up): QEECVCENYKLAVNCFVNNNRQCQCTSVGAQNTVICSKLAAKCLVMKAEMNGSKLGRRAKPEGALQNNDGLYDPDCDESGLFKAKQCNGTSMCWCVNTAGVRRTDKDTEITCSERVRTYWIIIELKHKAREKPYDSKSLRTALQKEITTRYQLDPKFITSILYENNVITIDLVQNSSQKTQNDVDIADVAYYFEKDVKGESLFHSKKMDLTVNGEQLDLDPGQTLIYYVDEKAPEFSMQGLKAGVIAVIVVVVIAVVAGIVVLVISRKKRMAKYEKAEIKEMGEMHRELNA
From the text: FIG. 3. […] Binding of biotinylated antibodies was detected by flow cytometry using fluorochrome-conjugated streptavidin. Results are pooled from two replicates in one representative experiment of two.
The human EpCAM gene was cloned into pcDNA3.1, and the vector was subsequently stably transfected into CHO cells. Control CHO cells were stably transfected with and empty pcDNA3.1 vector. […] Binding of biotinylated antibodies was detected with fluorochrome-conjugated streptavidin and analysed using flow cytometry.

[2] = molecular target: T2, human CD40 expressed on cells (human, UniProt P25942 21-277); experiment: flow cytometry, titration of biotinylated antibody on human PBMC gated with CD19, CD14, CD3 and CD56, detection with fluorochrome-conjugated streptavidin
T2 construct: whole, on cells; also called CD40 on primary human B cells, monocytes, monocyte-derived DCs, Raji cells and hCD40tg mouse DCs
From the text: FIG. 5. […] Binding of biotinylated antibodies to different cell populations was detected by flow cytometry using fluorochrome-conjugated streptavidin. Results are pooled from three donors in one representative experiment of two.
Binding of biotinylated antibodies was detected with fluorochrome-conjugated streptavidin and analysed using flow cytometry.

[3] = molecular target: T3, dimeric antigen EpCAM-Fc (Sino hEpCAM_Fc #10694-H02H) (human, UniProt P16422 24-265); experiment: BLI (Octet RED96), Assay 1: bsAb on FAB2G sensors, dimeric EpCAM-Fc in solution, 1:1 fit
T3 construct: not shown: Fc part
T3 sequence (looked up): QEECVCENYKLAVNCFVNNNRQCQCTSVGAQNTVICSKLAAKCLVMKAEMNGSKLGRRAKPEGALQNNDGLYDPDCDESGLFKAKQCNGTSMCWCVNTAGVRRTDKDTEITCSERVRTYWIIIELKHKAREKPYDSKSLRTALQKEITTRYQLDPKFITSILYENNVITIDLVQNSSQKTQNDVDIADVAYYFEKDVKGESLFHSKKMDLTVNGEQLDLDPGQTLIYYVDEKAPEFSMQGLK
Experimental: (§1) Kinetic measurements were performed using the Octet RED96 platform (ForteBlo).
(§2) BsAb at 1.0 or 1.5 ug/ml where coupled to anti-human Fab-CH1 2nd generation (FAB2G) biosensors (Part no #18-5125 (tray)). Antigens were serially diluted % in 1× Kinetic buffer (ForteBio) to 100 nM, 50 nM, 25 nM, 12.5 nM, 6.25 nM, 3.125 nM, 1.56 nM or 0 nM. The association was followed for 300 seconds and the dissociation in 1× Kinetic buffer for 300 seconds. Sensor tips were regenerated using 10 mM glycine, pH 1.5. Data generated were referenced by subtracting a parallel buffer blank, the baseline was aligned with the y-axis, inter-step correlation by alignment against dissociation was performed and the data were smoothed by a Savitzky-Golay filter in the data analysis software (v.9.0.0.14). The processed data were fitted using a 1:1 Langmuir binding model with X2 as a measurement of fitting accuracy.

[4] = molecular target: T4, hEpCAM (R&D Systems #9277-EP), monomeric antigen EpCAM-his (human, UniProt P16422 24-265); experiment: BLI (Octet RED96), Assay 2: bsAb on FAB2G sensors, monomeric EpCAM-his in solution, 1:1 fit
T4 construct: Bought reagent; also called human EpCAM; not shown: His tag
T4 sequence (looked up): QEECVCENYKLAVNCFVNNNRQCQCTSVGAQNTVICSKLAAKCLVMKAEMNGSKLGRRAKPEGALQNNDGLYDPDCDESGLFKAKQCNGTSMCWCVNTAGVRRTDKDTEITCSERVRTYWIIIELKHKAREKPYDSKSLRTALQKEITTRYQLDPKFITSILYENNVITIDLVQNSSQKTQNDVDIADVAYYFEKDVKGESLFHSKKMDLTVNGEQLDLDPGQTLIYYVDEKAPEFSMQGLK
Experimental: as §1, §2

[5] = molecular target: T4, hEpCAM (R&D Systems #9277-EP), …; experiment: Mono ELISA (top frame): plate coated with 0.5 µg/mL hEpCAM, detection with HRP-labelled goat anti-human kappa light chain, luminescence
[6] = molecular target: T3, dimeric antigen EpCAM-Fc (Sino …); experiment: BLI (Octet RED96), Assay 3: hEpCAM_Fc coupled to AR2G sensors, bsAb in solution, 1:1 fit
Experimental: as §1
Antigen was coupled to Amine reactive Second generation sensors (Dip and Read Amine reactive Second-Generation (AR2G) Biosensors (Part no #18-5092 (tray)) at antigen concentrations of 0.4, 1.5, 0.25 or 0.5 μg/mL. BsAb (serially diluted % in 1× Kinetic buffer (ForteBio) with start concentrations of 20, 15, 10 or 25 nM) were analysed for binding to antigen-coupled sensors. The association was followed for 300 seconds and the dissociation in 1× Kinetic buffer for 300 seconds. Sensor tips were regenerated using 10 mM glycine, pH 2.2. Data generated were referenced by subtracting a parallel buffer blank, the baseline was aligned with the y-axis, inter-step correlation by alignment against dissociation was performed and the data were smoothed by a Savitzky-Golay filter in the data analysis software (v.9.0.0.14). The processed data were fitted using a 1:1 Langmuir binding model with X2 as a measurement of fitting accuracy.

T2 sequence (P25942 21-277): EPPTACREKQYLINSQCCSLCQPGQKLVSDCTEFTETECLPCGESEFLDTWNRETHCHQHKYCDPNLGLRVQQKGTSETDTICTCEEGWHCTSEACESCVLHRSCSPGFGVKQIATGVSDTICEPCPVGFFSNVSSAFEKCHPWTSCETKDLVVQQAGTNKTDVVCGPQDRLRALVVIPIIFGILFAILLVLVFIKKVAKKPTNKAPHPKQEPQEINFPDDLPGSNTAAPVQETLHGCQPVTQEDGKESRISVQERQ

B1: 1132.m2 (antibody, V domains shown)
VH: EVQLLESGGGLVQPGGSLRLSCAASGFTFSSYAMSWVRQAPGKGLEWVSGIGSYGGGTYYADSVKGRFTISRDNSKNTLYLQMNSLRAEDTAVYYCARYVNFGMDYWGQGTLVTVSS
VL: DIQMTQSPSSLSASVGDRVTITCRASQSISSYLNWYQQKPGKAPKLLIYAASSLQSGVPSRFSGSGSGTDFTLTISSLQPEDFATYYCQQYGRNPPTFGQGTKLEIK
notes: Full chains are not tied to this name; also called LALA-mutated agonistic monoclonal CD40 antibody
Q: Does B1 bind [1]?
A: no binding (tested: about 300 nM)

Q: Does B1 bind [2]?
A: binds

B2: 1132-005025.M (bispecific antibody)
VH: EVQLLESGGGLVQPGGSLRLSCAASGFTFSSYAMSWVRQAPGKGLEWVSGIGSYGGGTYYADSVKGRFTISRDNSKNTLYLQMNSLRAEDTAVYYCARYVNFGMDYWGQGTLVTVSS
VL: DIQMTQSPSSLSASVGDRVTITCRASQSISSYLNWYQQKPGKAPKLLIYAASSLQSGVPSRFSGSGSGTDFTLTISSLQPEDFATYYCQQYGRNPPTFGQGTKLEIK
scFv: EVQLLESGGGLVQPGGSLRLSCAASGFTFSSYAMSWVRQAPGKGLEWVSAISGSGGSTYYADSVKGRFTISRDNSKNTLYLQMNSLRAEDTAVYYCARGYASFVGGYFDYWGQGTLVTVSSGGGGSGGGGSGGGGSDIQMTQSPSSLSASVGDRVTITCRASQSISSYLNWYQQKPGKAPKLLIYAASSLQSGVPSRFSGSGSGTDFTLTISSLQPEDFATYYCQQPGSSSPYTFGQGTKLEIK
notes: also called CD40-EpCAM bispecific antibody in the Morrison format
Q: Which Kd [3] does the source give for B2 here?
A: 4 nM

Q: What about the koff [3] of the same binder?
A: 0.001 s⁻¹

Q: And the kon [3]?
A: 300000 M⁻¹ s⁻¹

Q: What about the Kd [4] of the same binder?
A: 300 nM

Q: What about the koff [4] of the same binder?
A: 0.01 s⁻¹

Q: And the kon [4]?
A: 30000 M⁻¹ s⁻¹

Q: And the “EC50 (read off the curve)” value [5]?
A: ~0.5 nM

B3: 1132-005038.M (bispecific antibody)
VH: EVQLLESGGGLVQPGGSLRLSCAASGFTFSSYAMSWVRQAPGKGLEWVSGIGSYGGGTYYADSVKGRFTISRDNSKNTLYLQMNSLRAEDTAVYYCARYVNFGMDYWGQGTLVTVSS
VL: DIQMTQSPSSLSASVGDRVTITCRASQSISSYLNWYQQKPGKAPKLLIYAASSLQSGVPSRFSGSGSGTDFTLTISSLQPEDFATYYCQQYGRNPPTFGQGTKLEIK
scFv: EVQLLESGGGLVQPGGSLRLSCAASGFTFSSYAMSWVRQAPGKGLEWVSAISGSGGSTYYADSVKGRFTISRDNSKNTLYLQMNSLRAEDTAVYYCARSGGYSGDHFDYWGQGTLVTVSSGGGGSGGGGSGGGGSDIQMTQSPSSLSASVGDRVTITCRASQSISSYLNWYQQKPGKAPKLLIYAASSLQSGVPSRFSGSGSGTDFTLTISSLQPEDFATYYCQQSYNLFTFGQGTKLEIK
notes: as for B2
Q: Which Kd [3] does the source give for B3 here?
A: 6 nM

Q: And the koff [3]?
A: 0.002 s⁻¹

Q: What about the kon [3] of the same binder?
A: 300000 M⁻¹ s⁻¹

Q: What about the Kd [4] of the same binder?
A: 1000 nM

Q: What about the koff [4] of the same binder?
A: 0.01 s⁻¹

Q: And the kon [4]?
A: 8000 M⁻¹ s⁻¹

Q: And the “EC50 (read off the curve)” value [5]?
A: ~1 nM

B4: 1132-3188.M (bispecific antibody, V domains shown)
VH 1: EVQLLESGGGLVQPGGSLRLSCAASGFTFSSYAMSWVRQAPGKGLEWVSGIGSYGGGTYYADSVKGRFTISRDNSKNTLYLQMNSLRAEDTAVYYCARYVNFGMDYWGQGTLVTVSS
VL 1: DIQMTQSPSSLSASVGDRVTITCRASQSISSYLNWYQQKPGKAPKLLIYAASSLQSGVPSRFSGSGSGTDFTLTISSLQPEDFATYYCQQYGRNPPTFGQGTKLEIK
VH 2: EVQLVQSGPGLVQPGGSVRISCAASGYTFTNYGMNWVKQAPGKGLEWMGWINTYTGESTYADSFKGRFTFSLDTSASAAYLQINSLRAEDTAVYYCARFAIKGDYWGQGTLLTVSS
VL 2: DIQMTQSPSSLSASVGDRVTITCRSTKSLLHSNGITYLYWYQQKPGKAPKLLIYQMSNLASGVPSRFSSSGSGTDFTLTISSLQPEDFATYYCAQNLEIPRTFGQGTKVELK
notes: also called CD40-EpCAM bispecific antibody in the Morrison format; 3188 = 4D5MOCB = BM1
Q: For B4, which Kd [3] is on record?
A: < 0.001 nM

Q: What about the koff [3] of the same binder?
A: < 1e-07 s⁻¹

Q: And the kon [3]?
A: 300000 M⁻¹ s⁻¹

Q: And the Kd [4]?
A: 30 nM

Q: And the koff [4]?
A: 0.004 s⁻¹

Q: What about the kon [4] of the same binder?
A: 100000 M⁻¹ s⁻¹

Q: What about the “EC50 (read off the curve)” value [5] of the same binder?
A: ~0.4 nM

B5: 1132-3174.M (bispecific antibody, V domains shown)
VH 1: EVQLLESGGGLVQPGGSLRLSCAASGFTFSSYAMSWVRQAPGKGLEWVSGIGSYGGGTYYADSVKGRFTISRDNSKNTLYLQMNSLRAEDTAVYYCARYVNFGMDYWGQGTLVTVSS
VL 1: DIQMTQSPSSLSASVGDRVTITCRASQSISSYLNWYQQKPGKAPKLLIYAASSLQSGVPSRFSGSGSGTDFTLTISSLQPEDFATYYCQQYGRNPPTFGQGTKLEIK
VH 2: EVQLLEQSGAELVRPGTSVKISCKASGYAFTNYWLGWVKQRPGHGLEWIGDIFPGSGNIHYNEKFKGKATLTADKSSSTAYMQLSSLTFEDSAVYFCARLRNWDEPMDYWGQGTTVTVSS
VL 2: ELVMTQSPSSLTVTAGEKVTMSCKSSQSLLNSGNQKNYLTWYQQKPGQPPKLLIYWASTRESGVPDRFTGSGSGTDFTLTISSVQAEDLAVYYCQNDYSYPLTFGAGTKLEIK
notes: as for B2
Q: With B5 as the binder, how does the Kd [3] read?
A: 0.5 nM

Q: What about the koff [3] of the same binder?
A: 8e-05 s⁻¹

Q: What about the kon [3] of the same binder?
A: 200000 M⁻¹ s⁻¹

Q: What about the Kd [6] of the same binder?
A: 10 nM

Q: What about the koff [6] of the same binder?
A: 0.002 s⁻¹

Q: What about the kon [6] of the same binder?
A: 200000 M⁻¹ s⁻¹

Q: And the Kd [4]?
A: 500 nM

Q: And the koff [4]?
A: 0.01 s⁻¹

Q: And the kon [4]?
A: 20000 M⁻¹ s⁻¹

Source: patent US20220064325A1 (ALLIGATOR BIOSCIENCE, published 2022)
